Assay results from IntAct's records for PubMed 32296183.

B1: Ceroid-lipofuscinosis neuronal protein 6 (Homo sapiens), Q9NWW5 (parent)
chain: MEATRRRQHLGATGGPGAQLGASFLQARHGSVSADEAARTAPFHLDLWFYFTLQNWVLDFGRPIAMLVFPLEWFPLNKPSVGDYFHMAYNVITPFLLLKLIERSPRTLPRSITYVSIIIFIMGASIHLVGDSVNHRLLFSGYQHHLSVRENPIIKNLKPETLIDSFELLYYYDEYLGHCMWYIPFFLILFMYFSGCFTASKAESLIPGPALLLVAPSGLYYWYLVTEGQIFILFIFTFFAMLALVLHQKRKRLFLDSNGLFLFSSFALTLLLVALWVAWLWNDPVLRKKYPGVIYVPEPWAFYTLHVSSRH
B2: Golgi SNAP receptor complex member 2 (Homo sapiens), O14653 (parent)
chain: MDPLFQQTHKQVHEIQSCMGRLETADKQSVHIVENEIQASIDQIFSRLERLEILSSKEPPNKRQNARLRVDQLKYDVQHLQTALRNFQHRRHAREQQERQREELLSRTFTTNDSDTTIPMDESLQFNSSLQKVHNGMDDLILDGHNILDGLRTQRLTLKGTQKKILDIANMLGLSNTVMRLIEKRAFQDKYFMIGGMLLTCVVMFLVVQYLT
partner: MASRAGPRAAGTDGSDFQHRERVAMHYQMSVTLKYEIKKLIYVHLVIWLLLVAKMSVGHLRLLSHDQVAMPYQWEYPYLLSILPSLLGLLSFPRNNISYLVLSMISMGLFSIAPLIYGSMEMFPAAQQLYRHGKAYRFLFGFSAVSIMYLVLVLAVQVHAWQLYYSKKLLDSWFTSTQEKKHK
B3: Catenin alpha-3 (Homo sapiens), Q9UI47-2 (parent)
chain: MSAETPITLNIDPQDLQVQTFTVEKLLEPLIIQVTTLVNCPQNPSSRKKGRSKRASVLLASVEEATWNLLDKGEKIAQEATVLKDELTASLEEVRKESEALKVSAERFTDDPCFLPKREAVVQAARALLAAVTRLLILADMIDVMCLLQHVSAFQRTFESLKNVANKSDLQKTYQKLGKELENLDYLAFKRQQDLKSPNQRDEIAGARASLKENSPLLHSICSACLEHSDVASLKASKDTVCEEIQNALNVISNASQGIQNMTTPPEPQAATLGSALDELENLIVLNPLTVTEEEIRPSLEKRLEAIISGAALLADSSCTRDLHRERIIAECNAIRQALQDLLSEYMNNAGKKERSNTLNIALDNMCKKTRDLRRQLRKAIIDHVSDSFLDTTVPLLVLIEAAKNGREKEIKEYAAIFHEHTSRLVEVANLACSMSTNEDGIKIVKIAANHLETLCPQIINAALALAARPKSQAVKNTMEMYKRTWENHIHVLTEAVDDITSIDDFLAVSGMFLFF
partner: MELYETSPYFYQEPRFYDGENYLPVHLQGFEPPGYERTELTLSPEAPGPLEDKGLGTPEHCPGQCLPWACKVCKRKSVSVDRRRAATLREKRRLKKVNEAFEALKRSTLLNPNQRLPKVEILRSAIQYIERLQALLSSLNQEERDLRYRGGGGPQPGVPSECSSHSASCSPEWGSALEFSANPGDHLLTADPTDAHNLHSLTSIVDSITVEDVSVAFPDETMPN
B4: Catenin alpha-3 (Homo sapiens), Q9UI47-2 (parent)
chain: B3 chain
partner: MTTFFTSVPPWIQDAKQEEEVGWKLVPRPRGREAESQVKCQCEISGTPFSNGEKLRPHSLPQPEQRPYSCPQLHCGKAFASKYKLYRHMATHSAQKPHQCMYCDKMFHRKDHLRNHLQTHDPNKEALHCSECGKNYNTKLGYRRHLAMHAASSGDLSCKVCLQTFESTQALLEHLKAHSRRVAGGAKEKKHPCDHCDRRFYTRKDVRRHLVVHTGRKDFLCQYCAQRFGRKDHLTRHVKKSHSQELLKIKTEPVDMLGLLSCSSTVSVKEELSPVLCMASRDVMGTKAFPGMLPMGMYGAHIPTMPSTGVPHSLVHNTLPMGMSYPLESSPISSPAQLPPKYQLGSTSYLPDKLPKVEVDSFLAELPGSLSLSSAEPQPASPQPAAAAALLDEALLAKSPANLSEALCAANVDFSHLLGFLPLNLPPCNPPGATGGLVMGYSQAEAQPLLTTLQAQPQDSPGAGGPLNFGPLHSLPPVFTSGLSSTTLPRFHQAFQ
B5: Very-long-chain enoyl-CoA reductase (Homo sapiens), Q9NZ01 (parent)
chain: MKHYEVEILDAKTREKLCFLDKVEPHATIAEIKNLFTKTHPQWYPARQSLRLDPKGKSLKDEDVLQKLPVGTTATLYFRDLGAQISWVTVFLTEYAGPLFIYLLFYFRVPFIYGHKYDFTSSRHTVVHLACICHSFHYIKRLLETLFVHRFSHGTMPLRNIFKNCTYYWGFAAWMAYYINHPLYTPPTYGAQQVKLALAIFVICQLGNFSIHMALRDLRPAGSKTRKIPYPTKNPFTWLFLLVSCPNYTYEVGSWIGFAIMTQCLPVALFSLVGFTQMTIWAKGKHRSYLKEFRDYPPLRMPIIPFLL
partner: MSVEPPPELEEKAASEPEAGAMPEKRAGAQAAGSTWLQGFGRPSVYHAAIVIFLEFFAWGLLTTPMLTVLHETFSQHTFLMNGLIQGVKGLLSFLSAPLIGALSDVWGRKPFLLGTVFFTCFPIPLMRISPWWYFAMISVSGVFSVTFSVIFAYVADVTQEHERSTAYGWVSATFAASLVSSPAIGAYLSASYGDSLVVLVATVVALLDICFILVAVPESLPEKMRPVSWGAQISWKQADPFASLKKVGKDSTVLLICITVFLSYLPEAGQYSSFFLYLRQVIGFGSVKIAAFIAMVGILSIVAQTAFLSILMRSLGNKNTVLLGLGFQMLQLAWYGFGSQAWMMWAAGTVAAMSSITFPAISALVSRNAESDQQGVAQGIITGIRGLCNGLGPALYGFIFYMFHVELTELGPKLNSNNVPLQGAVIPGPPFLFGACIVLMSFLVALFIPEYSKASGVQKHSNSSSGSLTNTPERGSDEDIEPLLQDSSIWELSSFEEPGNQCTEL
B6: Very-long-chain enoyl-CoA reductase (Homo sapiens), Q9NZ01 (parent)
chain: B5 chain
partner: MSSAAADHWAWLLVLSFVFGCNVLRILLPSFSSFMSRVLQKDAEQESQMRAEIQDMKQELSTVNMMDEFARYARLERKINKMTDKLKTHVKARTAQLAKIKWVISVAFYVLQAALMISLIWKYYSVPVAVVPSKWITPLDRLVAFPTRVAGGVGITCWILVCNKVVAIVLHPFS
B7: Catenin alpha-3 (Homo sapiens), Q9UI47-2 (parent)
chain: B3 chain
B8: Golgi SNAP receptor complex member 2 (Homo sapiens), O14653 (parent)
chain: B2 chain
partner: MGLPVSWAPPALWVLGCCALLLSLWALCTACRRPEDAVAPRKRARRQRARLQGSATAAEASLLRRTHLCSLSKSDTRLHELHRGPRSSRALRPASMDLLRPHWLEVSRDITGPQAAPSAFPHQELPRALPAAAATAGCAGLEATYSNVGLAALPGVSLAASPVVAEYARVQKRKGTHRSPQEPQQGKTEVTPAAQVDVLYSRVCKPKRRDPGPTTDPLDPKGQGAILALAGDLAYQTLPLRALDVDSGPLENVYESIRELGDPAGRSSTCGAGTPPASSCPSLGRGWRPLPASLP
B9: Golgi SNAP receptor complex member 2 (Homo sapiens), O14653 (parent)
chain: B2 chain
partner: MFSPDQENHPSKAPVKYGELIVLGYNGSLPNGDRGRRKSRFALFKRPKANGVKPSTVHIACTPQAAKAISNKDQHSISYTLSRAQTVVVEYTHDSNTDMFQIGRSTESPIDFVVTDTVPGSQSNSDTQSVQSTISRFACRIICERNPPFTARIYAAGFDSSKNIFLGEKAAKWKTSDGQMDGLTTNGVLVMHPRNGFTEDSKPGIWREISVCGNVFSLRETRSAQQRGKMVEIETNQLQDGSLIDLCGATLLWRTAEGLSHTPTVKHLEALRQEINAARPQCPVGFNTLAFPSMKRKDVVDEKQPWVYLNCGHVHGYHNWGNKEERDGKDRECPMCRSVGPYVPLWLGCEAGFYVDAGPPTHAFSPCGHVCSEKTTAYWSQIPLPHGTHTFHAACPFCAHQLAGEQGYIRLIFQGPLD
B10: Ceroid-lipofuscinosis neuronal protein 6 (Homo sapiens), Q9NWW5 (parent)
chain: B1 chain
partner: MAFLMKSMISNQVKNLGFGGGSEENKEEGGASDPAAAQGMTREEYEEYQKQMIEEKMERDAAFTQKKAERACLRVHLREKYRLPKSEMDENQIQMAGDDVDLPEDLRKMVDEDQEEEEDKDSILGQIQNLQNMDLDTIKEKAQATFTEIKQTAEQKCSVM
B11: Very-long-chain enoyl-CoA reductase (Homo sapiens), Q9NZ01 (parent)
chain: B5 chain
partner: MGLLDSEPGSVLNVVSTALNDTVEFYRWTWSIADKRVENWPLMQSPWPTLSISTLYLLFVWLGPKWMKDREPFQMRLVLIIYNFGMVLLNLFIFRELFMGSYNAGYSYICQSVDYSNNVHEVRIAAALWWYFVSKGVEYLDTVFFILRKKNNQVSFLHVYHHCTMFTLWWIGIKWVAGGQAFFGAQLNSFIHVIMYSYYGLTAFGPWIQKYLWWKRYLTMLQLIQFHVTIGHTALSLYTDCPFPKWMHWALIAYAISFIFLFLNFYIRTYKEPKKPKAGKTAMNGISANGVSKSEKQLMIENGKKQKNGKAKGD

Variants of: B1
Details: with stx1a_human STX1A

Row | Variant | effect of a mutation on the interaction
1 | R103Q | with no effect

Variants of: B2
Details: with jagn1_human JAGN1, Q8N5M9

Row | Variant | effect of a mutation on the interaction
2 | G144W | with no effect

Variants of: B3
Details: with myog_human MYOG

Row | Variant | effect of a mutation on the interaction
3 | V94D | disrupting interaction strength

Variants of: B4
Details: with plal2_human PLAGL2, Q9UPG8

Row | Variant | effect of a mutation on the interaction
4 | V94D | disrupting interaction strength

Variants of: B5
Details: with mf14b_human MFSD14B

Row | Variant | effect of a mutation on the interaction
5 | P182L | disrupting interaction strength

Variants of: B6
Details: with get1_human GET1, O00258

Row | Variant | effect of a mutation on the interaction
6 | P182L | disrupting interaction strength

Variants of: B7
Details: with katl1_human KATNAL1, Q9BW62
katl1_human KATNAL1, Q9BW62, sequence (Q9BW62 whole entry): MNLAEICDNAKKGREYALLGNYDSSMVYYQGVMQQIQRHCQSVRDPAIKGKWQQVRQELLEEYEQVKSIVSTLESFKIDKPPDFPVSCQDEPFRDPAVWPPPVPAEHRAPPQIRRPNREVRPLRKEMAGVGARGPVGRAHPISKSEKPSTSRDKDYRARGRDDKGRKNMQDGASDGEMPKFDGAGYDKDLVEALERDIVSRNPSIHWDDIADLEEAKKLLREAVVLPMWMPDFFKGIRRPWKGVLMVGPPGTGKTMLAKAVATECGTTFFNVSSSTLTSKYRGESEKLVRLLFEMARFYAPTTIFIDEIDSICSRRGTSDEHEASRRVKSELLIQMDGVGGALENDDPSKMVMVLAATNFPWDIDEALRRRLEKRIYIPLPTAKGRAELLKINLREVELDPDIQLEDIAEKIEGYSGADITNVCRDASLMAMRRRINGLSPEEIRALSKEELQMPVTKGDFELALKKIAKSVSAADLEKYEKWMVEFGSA

Row | Variant | effect of a mutation on the interaction
7 | V94D | disrupting interaction strength

Variants of: B7
Details: with pax6_human PAX6, P26367
pax6_human PAX6, P26367, sequence (P26367 whole entry): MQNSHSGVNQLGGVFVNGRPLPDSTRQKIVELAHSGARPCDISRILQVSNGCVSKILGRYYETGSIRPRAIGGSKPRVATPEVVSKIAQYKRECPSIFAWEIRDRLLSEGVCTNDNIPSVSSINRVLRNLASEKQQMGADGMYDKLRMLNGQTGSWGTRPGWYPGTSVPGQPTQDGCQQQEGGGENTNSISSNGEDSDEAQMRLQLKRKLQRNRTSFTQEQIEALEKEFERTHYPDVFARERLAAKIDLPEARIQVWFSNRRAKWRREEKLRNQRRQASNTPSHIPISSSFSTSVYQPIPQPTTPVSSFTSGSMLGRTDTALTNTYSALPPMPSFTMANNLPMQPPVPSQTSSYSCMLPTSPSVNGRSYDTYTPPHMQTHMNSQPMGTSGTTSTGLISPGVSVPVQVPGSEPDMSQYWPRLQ

Row | Variant | effect of a mutation on the interaction
8 | V94D | with no effect

Variants of: B7
Details: with taso2_human TASOR2, Q5VWN6
taso2_human TASOR2, Q5VWN6, sequence (Q5VWN6 whole entry): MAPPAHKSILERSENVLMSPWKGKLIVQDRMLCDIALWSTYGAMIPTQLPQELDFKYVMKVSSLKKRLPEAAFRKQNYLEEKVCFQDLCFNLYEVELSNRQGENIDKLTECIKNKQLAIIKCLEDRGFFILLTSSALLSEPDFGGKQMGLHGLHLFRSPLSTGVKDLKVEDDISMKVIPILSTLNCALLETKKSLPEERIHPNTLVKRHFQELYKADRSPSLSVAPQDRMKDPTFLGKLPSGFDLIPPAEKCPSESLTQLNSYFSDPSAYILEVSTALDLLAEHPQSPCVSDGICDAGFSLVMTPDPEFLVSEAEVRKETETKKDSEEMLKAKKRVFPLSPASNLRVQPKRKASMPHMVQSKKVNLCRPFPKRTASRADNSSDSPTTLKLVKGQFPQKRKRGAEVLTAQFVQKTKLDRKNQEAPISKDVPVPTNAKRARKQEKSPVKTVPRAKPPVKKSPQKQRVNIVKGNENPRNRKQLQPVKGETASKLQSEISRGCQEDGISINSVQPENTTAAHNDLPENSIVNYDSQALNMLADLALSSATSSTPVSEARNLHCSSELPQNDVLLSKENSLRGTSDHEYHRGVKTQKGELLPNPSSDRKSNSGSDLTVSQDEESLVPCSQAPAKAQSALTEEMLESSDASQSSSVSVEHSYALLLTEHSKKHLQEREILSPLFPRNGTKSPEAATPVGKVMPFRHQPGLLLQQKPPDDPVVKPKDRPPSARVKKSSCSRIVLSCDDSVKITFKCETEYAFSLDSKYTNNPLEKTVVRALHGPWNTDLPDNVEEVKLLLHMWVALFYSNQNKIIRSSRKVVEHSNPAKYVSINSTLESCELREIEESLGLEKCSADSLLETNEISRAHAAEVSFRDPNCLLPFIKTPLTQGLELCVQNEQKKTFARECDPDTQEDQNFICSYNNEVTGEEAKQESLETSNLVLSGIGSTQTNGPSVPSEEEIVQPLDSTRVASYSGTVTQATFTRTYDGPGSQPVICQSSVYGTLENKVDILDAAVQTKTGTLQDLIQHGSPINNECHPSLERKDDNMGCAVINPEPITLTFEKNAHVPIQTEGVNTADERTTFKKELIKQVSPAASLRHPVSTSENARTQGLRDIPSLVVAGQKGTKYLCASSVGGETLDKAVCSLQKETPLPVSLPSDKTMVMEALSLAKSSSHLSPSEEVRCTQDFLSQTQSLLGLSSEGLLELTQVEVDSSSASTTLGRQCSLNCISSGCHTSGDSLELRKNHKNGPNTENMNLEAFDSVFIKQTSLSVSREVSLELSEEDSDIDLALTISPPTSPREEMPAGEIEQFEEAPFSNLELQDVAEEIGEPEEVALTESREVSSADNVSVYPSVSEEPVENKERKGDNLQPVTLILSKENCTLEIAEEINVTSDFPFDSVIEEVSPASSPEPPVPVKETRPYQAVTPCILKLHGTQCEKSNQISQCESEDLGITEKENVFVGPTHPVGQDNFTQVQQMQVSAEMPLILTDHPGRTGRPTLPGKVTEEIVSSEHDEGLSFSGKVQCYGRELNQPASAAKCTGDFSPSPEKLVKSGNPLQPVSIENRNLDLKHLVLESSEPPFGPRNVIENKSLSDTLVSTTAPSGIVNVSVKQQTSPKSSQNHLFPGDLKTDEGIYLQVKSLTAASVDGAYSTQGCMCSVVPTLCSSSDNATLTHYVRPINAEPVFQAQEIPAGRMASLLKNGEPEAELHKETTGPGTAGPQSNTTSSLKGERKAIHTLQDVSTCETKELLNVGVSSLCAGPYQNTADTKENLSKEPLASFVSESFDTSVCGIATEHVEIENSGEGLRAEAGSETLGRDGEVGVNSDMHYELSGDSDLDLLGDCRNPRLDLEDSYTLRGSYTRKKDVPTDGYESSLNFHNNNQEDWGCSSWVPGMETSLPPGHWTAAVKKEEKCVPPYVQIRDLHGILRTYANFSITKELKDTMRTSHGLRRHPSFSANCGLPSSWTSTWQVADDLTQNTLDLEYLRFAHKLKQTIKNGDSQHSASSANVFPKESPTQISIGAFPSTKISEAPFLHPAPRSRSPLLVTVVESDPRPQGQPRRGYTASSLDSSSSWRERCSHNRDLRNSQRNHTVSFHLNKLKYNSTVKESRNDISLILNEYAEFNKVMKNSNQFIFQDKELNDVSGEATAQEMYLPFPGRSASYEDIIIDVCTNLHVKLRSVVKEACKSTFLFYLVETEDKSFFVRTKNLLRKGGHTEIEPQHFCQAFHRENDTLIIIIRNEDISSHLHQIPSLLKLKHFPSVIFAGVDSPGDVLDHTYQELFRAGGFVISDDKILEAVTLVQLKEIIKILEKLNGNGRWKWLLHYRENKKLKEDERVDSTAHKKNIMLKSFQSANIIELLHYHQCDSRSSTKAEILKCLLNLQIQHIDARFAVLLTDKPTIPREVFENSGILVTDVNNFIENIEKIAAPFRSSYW

Row | Variant | effect of a mutation on the interaction
9 | V94D | with no effect

Variants of: B7
Details: with pnma5_human PNMA5, Q96PV4
pnma5_human PNMA5, Q96PV4, sequence (Q96PV4 whole entry): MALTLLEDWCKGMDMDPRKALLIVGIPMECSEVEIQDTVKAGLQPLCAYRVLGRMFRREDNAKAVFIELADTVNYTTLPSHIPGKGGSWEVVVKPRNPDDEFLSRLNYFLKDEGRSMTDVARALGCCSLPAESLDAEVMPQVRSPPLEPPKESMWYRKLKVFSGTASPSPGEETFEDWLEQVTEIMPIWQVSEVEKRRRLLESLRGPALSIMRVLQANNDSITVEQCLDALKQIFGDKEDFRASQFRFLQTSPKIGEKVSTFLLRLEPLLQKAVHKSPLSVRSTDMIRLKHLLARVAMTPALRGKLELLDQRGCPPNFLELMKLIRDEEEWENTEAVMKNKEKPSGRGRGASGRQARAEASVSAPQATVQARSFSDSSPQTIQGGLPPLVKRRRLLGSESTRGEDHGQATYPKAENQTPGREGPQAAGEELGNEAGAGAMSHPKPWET

Row | Variant | effect of a mutation on the interaction
10 | V94D | with no effect

Variants of: B7
Details: with ms18b_human OIP5, O43482
ms18b_human OIP5, O43482, sequence (O43482 whole entry): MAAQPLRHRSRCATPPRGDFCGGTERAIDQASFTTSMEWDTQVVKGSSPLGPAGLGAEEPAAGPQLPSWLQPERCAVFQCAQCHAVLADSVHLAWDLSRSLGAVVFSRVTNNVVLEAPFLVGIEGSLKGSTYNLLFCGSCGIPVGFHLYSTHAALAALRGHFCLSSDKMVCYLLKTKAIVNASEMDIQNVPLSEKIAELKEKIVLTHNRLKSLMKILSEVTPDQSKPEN

Row | Variant | effect of a mutation on the interaction
11 | V94D | disrupting interaction strength

Variants of: B7
Details: with cq050_human C17orf50, Q8WW18
cq050_human C17orf50, Q8WW18, sequence (Q8WW18 whole entry): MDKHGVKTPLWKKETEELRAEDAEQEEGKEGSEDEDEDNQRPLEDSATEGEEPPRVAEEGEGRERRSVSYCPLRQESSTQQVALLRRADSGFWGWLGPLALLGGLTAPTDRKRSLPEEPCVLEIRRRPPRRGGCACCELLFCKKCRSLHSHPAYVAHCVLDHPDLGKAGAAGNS

Row | Variant | effect of a mutation on the interaction
12 | V94D | disrupting interaction strength

Variants of: B7
Details: with mb3l1_human MBD3L1, Q8WWY6

Row | Variant | effect of a mutation on the interaction
13 | V94D | with no effect

Variants of: B7
Details: with PRR5, P85299-2
PRR5, P85299-2, sequence (P85299 other isoform, or with tags, fused parts or gaps): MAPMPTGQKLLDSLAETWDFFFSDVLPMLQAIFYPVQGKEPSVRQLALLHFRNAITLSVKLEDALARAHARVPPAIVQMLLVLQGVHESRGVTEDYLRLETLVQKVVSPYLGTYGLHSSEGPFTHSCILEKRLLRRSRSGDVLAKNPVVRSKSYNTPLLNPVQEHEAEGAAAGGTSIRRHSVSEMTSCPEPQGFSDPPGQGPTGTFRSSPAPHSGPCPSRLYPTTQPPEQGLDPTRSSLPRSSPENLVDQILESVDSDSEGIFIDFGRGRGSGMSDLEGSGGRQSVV

Row | Variant | effect of a mutation on the interaction
14 | V94D | disrupting interaction strength

Variants of: B7
Details: with cenps_human CENPS

Row | Variant | effect of a mutation on the interaction
15 | V94D | disrupting interaction strength

Variants of: B7
Details: with zn552_human ZNF552, Q9H707
zn552_human ZNF552, Q9H707, sequence (Q9H707 whole entry): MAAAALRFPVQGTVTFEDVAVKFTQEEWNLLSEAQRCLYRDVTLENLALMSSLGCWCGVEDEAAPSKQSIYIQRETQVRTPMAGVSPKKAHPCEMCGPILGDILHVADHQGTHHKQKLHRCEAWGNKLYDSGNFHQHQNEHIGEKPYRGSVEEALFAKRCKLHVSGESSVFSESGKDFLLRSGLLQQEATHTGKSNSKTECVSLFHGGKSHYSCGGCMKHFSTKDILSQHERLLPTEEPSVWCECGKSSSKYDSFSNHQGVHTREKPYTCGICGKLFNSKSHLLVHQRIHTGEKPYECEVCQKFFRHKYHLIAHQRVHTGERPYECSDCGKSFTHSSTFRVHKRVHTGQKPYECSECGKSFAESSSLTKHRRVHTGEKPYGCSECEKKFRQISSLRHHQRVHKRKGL

Row | Variant | effect of a mutation on the interaction
16 | V94D | disrupting interaction strength

Variants of: B8
Details: with lime1_human LIME1, Q9H400

Row | Variant | effect of a mutation on the interaction
17 | G144W | disrupting interaction strength

Variants of: B9
Details: with peli1_human PELI1, Q96FA3

Row | Variant | effect of a mutation on the interaction
18 | G144W | disrupting interaction strength

Variants of: B10
Details: with cplx4_human CPLX4, Q7Z7G2

Row | Variant | effect of a mutation on the interaction
19 | G123D | with no effect
20 | L47F | with no effect
21 | R6T | with no effect

Variants of: B11
Details: with elov4_human ELOVL4, Q9GZR5

Row | Variant | effect of a mutation on the interaction
22 | P182L | disrupting interaction strength
